Source: paper PMC5034320, “Modulation of yeast telomerase activity by Cdc13 and Est1 in vitro”

What was measured:
Cdc13 = target: T1, Cdc13 (Saccharomyces cerevisiae, UniProt P32797 1-924); assay: EMSA; 20-80 nM Cdc13, 30 nM DNA; EMSA: room temperature 5 min (30 C in Fig 5E), 30 nM DNA, 6% native gel, buffer not stated; DMS footprint: 50 mM cacodylate pH 7.0, 25 C 10 min, then 0.05% DMS; settings: protein: recombinant, tags: 6xHis
T1 sequence: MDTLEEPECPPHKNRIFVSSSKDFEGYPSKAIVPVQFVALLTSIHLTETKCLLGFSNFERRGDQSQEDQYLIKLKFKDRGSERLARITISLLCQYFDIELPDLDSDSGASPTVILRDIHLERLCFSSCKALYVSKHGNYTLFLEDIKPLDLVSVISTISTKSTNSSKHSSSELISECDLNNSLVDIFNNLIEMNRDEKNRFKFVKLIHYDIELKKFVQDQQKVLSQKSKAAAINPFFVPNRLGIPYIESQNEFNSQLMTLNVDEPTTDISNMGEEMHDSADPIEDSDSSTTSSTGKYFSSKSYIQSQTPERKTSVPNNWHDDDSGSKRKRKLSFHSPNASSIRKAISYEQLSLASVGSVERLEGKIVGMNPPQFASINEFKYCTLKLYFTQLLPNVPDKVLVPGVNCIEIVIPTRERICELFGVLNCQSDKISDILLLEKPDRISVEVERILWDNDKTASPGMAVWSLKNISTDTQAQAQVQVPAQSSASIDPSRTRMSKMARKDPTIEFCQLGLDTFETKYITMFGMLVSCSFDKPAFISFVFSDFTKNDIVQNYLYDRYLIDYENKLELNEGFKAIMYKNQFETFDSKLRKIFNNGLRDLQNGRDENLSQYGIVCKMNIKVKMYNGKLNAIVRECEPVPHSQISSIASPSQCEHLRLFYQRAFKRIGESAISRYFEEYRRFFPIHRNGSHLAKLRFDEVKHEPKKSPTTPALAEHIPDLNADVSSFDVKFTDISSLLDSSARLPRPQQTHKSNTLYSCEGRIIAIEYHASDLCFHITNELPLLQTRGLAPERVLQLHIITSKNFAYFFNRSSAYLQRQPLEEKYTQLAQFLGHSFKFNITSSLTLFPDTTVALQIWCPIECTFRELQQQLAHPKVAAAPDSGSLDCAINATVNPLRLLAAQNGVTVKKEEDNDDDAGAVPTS

Cdc13-BD = target: T2, Cdc13-BD (Saccharomyces cerevisiae, UniProt P32797 451-693); assay: EMSA; 20-80 nM protein, 30 nM DNA; second BD molecule binds; EMSA: room temperature 5 min (30 C in Fig 5E), 30 nM DNA, 6% native gel, buffer not stated; DMS footprint: 50 mM cacodylate pH 7.0, 25 C 10 min, then 0.05% DMS; settings: protein: recombinant; tags: 6xHis; label: 5'-32P; single strand
T2 sequence: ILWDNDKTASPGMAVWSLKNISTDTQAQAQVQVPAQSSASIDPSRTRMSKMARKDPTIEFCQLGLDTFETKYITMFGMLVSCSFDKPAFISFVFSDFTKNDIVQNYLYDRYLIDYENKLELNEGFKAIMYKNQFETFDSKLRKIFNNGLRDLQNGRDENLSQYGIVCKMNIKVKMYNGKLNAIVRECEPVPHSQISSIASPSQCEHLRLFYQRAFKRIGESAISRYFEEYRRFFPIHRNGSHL

Cdc13-2 = target: T3, Cdc13-2 (Saccharomyces cerevisiae, UniProt P32797 1-924, E252K); assay: EMSA; affinity similar to wild-type Cdc13; EMSA: room temperature 5 min (30 C in Fig 5E), 30 nM DNA, 6% native gel, buffer not stated; DMS footprint: 50 mM cacodylate pH 7.0, 25 C 10 min, then 0.05% DMS; settings: protein: recombinant; tags: 6xHis; chain copies: 2; label: 5'-32P on T21; 3' overhang 15 nt (T21 strand)
T3 sequence: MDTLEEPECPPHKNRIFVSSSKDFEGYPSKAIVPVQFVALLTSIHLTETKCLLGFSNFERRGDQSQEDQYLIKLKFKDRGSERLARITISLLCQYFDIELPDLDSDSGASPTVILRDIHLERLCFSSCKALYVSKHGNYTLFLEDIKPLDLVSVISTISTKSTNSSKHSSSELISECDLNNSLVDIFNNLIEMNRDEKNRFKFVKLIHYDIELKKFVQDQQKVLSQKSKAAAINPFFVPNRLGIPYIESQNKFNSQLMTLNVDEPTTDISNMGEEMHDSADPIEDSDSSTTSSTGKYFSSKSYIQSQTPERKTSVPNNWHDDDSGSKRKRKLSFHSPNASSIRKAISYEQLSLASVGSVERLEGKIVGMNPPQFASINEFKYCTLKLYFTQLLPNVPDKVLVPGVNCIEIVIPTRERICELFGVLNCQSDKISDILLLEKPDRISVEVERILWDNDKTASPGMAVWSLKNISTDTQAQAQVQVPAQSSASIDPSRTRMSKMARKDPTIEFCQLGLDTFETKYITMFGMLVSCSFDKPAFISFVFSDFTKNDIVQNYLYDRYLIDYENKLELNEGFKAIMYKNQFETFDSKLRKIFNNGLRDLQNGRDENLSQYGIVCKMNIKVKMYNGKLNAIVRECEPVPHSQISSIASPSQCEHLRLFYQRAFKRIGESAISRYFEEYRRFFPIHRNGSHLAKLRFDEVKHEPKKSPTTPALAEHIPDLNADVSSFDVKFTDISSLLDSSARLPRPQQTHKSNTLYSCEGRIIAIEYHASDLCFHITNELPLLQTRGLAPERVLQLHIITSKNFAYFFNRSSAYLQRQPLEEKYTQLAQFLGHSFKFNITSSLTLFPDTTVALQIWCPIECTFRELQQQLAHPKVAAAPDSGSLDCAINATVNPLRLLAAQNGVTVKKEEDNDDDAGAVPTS

Est1-TAP = target: T4, Est1-TAP (Saccharomyces cerevisiae, UniProt P17214 1-699); assay: EMSA; Est1-TAP alone; no stable complex; EMSA: room temperature 5 min (30 C in Fig 5E), 30 nM DNA, 6% native gel, buffer not stated; DMS footprint: 50 mM cacodylate pH 7.0, 25 C 10 min, then 0.05% DMS; settings: protein: recombinant; label: 5'-32P on T21; 3' overhang 15 nt (T21 strand)
T4 sequence: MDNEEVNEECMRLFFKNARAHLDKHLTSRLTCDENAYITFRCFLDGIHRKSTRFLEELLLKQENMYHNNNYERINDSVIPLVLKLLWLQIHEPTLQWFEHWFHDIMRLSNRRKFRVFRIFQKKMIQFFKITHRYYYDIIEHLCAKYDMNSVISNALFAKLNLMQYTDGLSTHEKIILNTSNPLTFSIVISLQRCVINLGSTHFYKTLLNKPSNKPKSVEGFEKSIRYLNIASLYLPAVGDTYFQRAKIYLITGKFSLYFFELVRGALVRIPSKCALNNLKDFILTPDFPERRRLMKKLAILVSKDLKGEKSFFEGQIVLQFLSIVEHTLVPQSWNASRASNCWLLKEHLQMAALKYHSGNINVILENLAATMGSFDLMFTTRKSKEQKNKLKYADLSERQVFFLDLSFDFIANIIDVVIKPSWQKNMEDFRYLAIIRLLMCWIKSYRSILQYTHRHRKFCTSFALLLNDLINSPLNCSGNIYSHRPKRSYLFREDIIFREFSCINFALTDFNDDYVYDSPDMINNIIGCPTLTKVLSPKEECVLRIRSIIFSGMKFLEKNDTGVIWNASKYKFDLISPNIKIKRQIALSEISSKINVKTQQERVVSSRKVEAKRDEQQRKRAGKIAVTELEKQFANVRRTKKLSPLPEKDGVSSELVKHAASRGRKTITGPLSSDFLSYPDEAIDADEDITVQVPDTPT

B1: T21 (ssDNA)
DNA: ATGGCTAGGTAGCCGAATTGCGTAGGTGGGTGTGGTGTGTGTGGG
binding result (Cdc13; label: 5'-32P, single strand): binds | binding result (Cdc13-BD): binds

B2: T21/C20 tailed duplex (mixed)
DNA 1: ATGGCTAGGTAGCCGAATTGCGTAGGTGGGTGTGGTGTGTGTGGG
DNA 2: CCCACCTACGCAATTCGGCTACCTAGCCAT
modifications: 3'-NH2 on C20
binding result (Cdc13; chain copies: 2, label: 5'-32P on T21, 3' overhang 15 nt (T21 strand)): binds | binding result (Cdc13-2): binds | binding result (Est1-TAP): no binding
